Measured values from patent US20230381279A1, “PHARMACEUTICAL COMPOSITION FOR PREVENTING OR TREATING LUPUS-RELATED DISEASES COMPRISING GIP DERIVATIVE OR LONG-ACTING CONJUGATE THEREOF” (HANMI PHARM. CO., LTD., priority 2020, published 2023).
Non-standard residues stand in square brackets, D forms with d. No end group written: not given here. Aib = CC(C)(N)C(=O)O

T1: human GIP receptor (Homo sapiens, UniProt P48546)
T1 construct: expressed in transfected cells; host or cells: CHO (Chinese hamster ovary) cells
T1 sequence (P48546 22-466): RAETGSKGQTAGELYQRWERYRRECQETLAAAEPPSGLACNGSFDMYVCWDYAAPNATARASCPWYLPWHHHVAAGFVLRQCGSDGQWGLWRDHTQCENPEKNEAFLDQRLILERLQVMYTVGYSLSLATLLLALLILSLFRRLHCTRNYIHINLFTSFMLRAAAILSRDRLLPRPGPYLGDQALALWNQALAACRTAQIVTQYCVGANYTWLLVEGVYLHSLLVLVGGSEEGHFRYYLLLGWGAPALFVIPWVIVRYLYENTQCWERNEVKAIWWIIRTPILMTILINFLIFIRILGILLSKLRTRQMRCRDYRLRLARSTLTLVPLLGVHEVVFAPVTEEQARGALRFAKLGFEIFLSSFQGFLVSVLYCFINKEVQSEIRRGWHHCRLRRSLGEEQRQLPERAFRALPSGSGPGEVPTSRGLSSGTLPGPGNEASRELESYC

T2: human GIP receptor (human, UniProt P48546 22-466)
T2 sequence (looked up): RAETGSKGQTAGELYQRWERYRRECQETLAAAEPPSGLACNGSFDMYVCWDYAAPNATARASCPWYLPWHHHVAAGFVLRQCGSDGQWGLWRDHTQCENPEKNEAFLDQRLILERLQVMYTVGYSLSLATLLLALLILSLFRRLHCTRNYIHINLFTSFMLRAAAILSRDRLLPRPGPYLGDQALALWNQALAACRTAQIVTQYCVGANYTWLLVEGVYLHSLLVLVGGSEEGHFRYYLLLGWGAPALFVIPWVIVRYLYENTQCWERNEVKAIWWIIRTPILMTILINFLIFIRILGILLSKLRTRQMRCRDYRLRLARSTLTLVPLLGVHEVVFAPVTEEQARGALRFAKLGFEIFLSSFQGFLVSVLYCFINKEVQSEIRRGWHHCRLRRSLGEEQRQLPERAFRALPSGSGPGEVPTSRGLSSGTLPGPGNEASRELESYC


How the values were obtained:
human GIP receptor [1] = target: T1, human GIP receptor; assay: In vitro activity of long-acting GIP conjugate: cAMP accumulation (LANCE cAMP kit) in CHO cells expressing human GIP receptor; type: cell-based; settings: relative potency from cAMP EC50 vs human GIP, PEG-immunoglobulin Fc conjugates
Method: To measure the activity of the long-acting GIP conjugates prepared in Example 3, a method of measuring cell activity in vitro using a cell line transformed with the GIP receptor was used in the same manner as in Example 2.
In detail, to measure the activity of the long-acting GIP derivatives in the human GIP receptors, human GIP was serially diluted from 16 nM to 0.000015 nM by 4 folds, and the long-acting GIP derivatives prepared in Example 1 were each serially diluted from 50 nM to 0.000048 nM by 4 folds. The culture medium was removed from the cultured CHO cells where the human GIP receptors were expressed, 5 μl of each of the serially diluted materials was added to the cells, and then, 5 μl of buffer containing cAMP antibody was added thereto, followed by incubation at room temperature for 15 minutes. Next, the cells were lysed by adding 10 μl of detection mix containing cell lysis buffer, and then allowed for a reaction at room temperature for 90 minutes. The cell lysate obtained by the completion of the reaction was applied to the LANCE cAMP kit (PerkinElmer, USA) to calculate the EC50 value through the accumulated cAMP to be compared with each other.

human GIP receptor [2] = target: T2, human GIP receptor; assay: cell-based or functional assay

Row | Molecule | In vitro activity of long-acting GIP derivative compared to human native GIP in human GIP receptor (%) (human GIP receptor [1]) | In vitro activity of GIP derivative compared to human native GIP in human GIP receptor (%) (cAMP EC50, CHO cells expressing human GIP receptor) (human GIP receptor [2])
1 | YAibEGT FISDY SIAibLD KQAAAib EFVNW LLAibGG PSSGA PPPSC (Y[Aib]EGTFISDYSI[Aib]LDKQAA[Aib]EFVNWLL[Aib]GGPSSGAPPPSC) [SEQ ID NO: 21] | 148.5 | 
2 | YAibEGT FISDY SIAibLD KQAAAib EFVNW LLAibGH PSSGA PPPSC (Y[Aib]EGTFISDYSI[Aib]LDKQAA[Aib]EFVNWLL[Aib]GHPSSGAPPPSC) [SEQ ID NO: 24] | 123.3 | 
3 | YAibEGT FISDYSIALEKQAQQDFVNWLLAGGPSSGAPPPSC (Y[Aib]EGTFISDYSIALEKQAQQDFVNWLLAGGPSSGAPPPSC) [SEQ ID NO: 17] | 153.2 | 
4 | YAibEGT FISDYSIAMDAIAQQDFVNWLLAQKGKKNDWKHNITQC (Y[Aib]EGTFISDYSIAMDAIAQQDFVNWLLAQKGKKNDWKHNITQC) [SEQ ID NO: 11] | 84.8 | 
5 | Y[Aib]EGTFISDYSIYLDAQAA[Aib]EFVNWLLAQKC (not fully specified) [GIP derivative of SEQ ID NO: 14] |  | 17.4
6 | Y[Aib]EGTFISDYSIYLDAQAAKEFIAWLLAGGPSSGAPPPSC (not fully specified) [GIP derivative of SEQ ID NO: 10] |  | 13.9
7 | Y[Aib]EGTFISDYSIYLDKQAA[Aib]EFVNWLL[Aib]GGPSSGAPPPSC (not fully specified) [GIP derivative of SEQ ID NO: 20] |  | 75.3
8 | Y[Aib]EGTFISDYSIYLDKQAA[Aib]EFVNWLLAQKC (not fully specified) [GIP derivative of SEQ ID NO: 13] |  | 31.1
9 | Y[Aib]EGTFISDYSIYLDKQAQKEFVNWLL[Aib]GGPSSGAPPPSC (not fully specified) [GIP derivative of SEQ ID NO: 23] |  | 87.6
10 | Y[Aib]EGTFISDYSIAMDKIAQQDFVNWLLAQKPSSGAPPPSC (not fully specified) [GIP derivative of SEQ ID NO: 15] |  | 31.1
11 | Y[Aib]EGTFISDYSIYLDKQAA[Aib]EFVNWLL[Aib]GHPSSGAPPPSC (not fully specified) [GIP derivative of SEQ ID NO: 19] |  | 66.7
12 | Y[Aib]EGTFISDYSIYLDAQAA[Aib]DFVNWLLAGGPSSGAPPPSC (not fully specified) [GIP derivative of SEQ ID NO: 8] |  | 1.9
13 | Y[Aib]EGTFISDYSIALEKQAQQDFVNWLLAGGPSSGAPPPSC (not fully specified) [GIP derivative of SEQ ID NO: 17] |  | 111
14 | Y[Aib]EGTFISDYSI[Aib]MDAIAQQDFVNWLLAGGPSSGAPPPSC (not fully specified) [GIP derivative of SEQ ID NO: 3] |  | 15.6
15 | Y[Aib]EGTFISDYSIYLDKQAAQEFVNWLLAQKPSSGAPPPSC (not fully specified) [GIP derivative of SEQ ID NO: 18] |  | 13.6
16 | Y[Aib]EGTFISDYSIYLDKQAA[Aib]EFVQWLI[Aib]GGPSSGAPPPSC (not fully specified) [GIP derivative of SEQ ID NO: 25] |  | 78.3
17 | Y[Aib]EGTFISDYSIYLDAQAAKDFVNWLLAGGPSSGAPPPSC (not fully specified) [GIP derivative of SEQ ID NO: 9] |  | 2
18 | Y[Aib]EGTFISDYSIAMDGIAQQDFVNWLLAQKPSSGAPPPSC (not fully specified) [GIP derivative of SEQ ID NO: 16] |  | 11.3
19 | Y[Aib]EGTFISDYSIYLDKQAA[Aib]EFVNWLLAGHPSSGAPPPSC (not fully specified) [GIP derivative of SEQ ID NO: 22] |  | 71.6
20 | Y[Aib]EGTFISDYSIYLDKQAA[Aib]EFVNWLLAQKGKKNDWKHNITQC (not fully specified) [GIP derivative of SEQ ID NO: 12] |  | 49.2
21 | Y[Aib]EGTFISDYSIAMDAIAQQDFVNWLLAQKGKKNDWKHNITQC (not fully specified) [GIP derivative of SEQ ID NO: 11] |  | 122
22 | Y[Aib]EGTFISDYSIYMDAIAQQDFVNWLLAGGPSSGAPPPSC (not fully specified) [GIP derivative of SEQ ID NO: 4] |  | 10.5
23 | Y[Aib]EGTFISDYSI[Aib]LDKQAA[Aib]EFVNWLL[Aib]GHPSSGAPPPSC (not fully specified) [GIP derivative of SEQ ID NO: 24] |  | 183
24 | Y[Aib]EGTFISDYSIAMDAIAQQDFVNWLLAGGPSSGAPPPSC (not fully specified) [GIP derivative of SEQ ID NO: 2] |  | 13.9
25 | Y[Aib]EGTFISDYSIAMDAIAQQDFVNWLLAQKPSSGAPPPSC (not fully specified) [GIP derivative of SEQ ID NO: 1] |  | 49.3
26 | Y[Aib]EGTFISDYSIYLDAQAQQDFVNWLLAGGPSSGAPPPSC (not fully specified) [GIP derivative of SEQ ID NO: 7] |  | 19.6
27 | Y[Aib]EGTFISDYSIYLDKQAA[Aib]EFVQWLIAGHPSSGAPPPC (not fully specified) [GIP derivative of SEQ ID NO: 26] |  | 66.7
28 | Y[Aib]EGTFISDYSIQMDAIAQQDFVNWLLAGGPSSGAPPPSC (not fully specified) [GIP derivative of SEQ ID NO: 5] |  | 12.1
29 | Y[Aib]EGTFISDYSI[Aib]LDKQAA[Aib]EFVNWLL[Aib]GGPSSGAPPPSC (not fully specified) [GIP derivative of SEQ ID NO: 21] |  | 123
30 | Y[Aib]EGTFISDYSIYLDAIAQQDFVNWLLAGGPSSGAPPPSC (not fully specified) [GIP derivative of SEQ ID NO: 6] |  | 17.4
